This is an account of results in publication PMC5452045.

One experiment has as its target His‐Mis18β (human) (UniProt O43482). Nature of the experiment: SEC-MALS; 100 μl of about 1 mg/ml on Superdex 200 10/300 GL; 50 mM HEPES pH 8.0, 150 mM NaCl, 1 mM TCEP; 22°C; subunit numbers from measured against calculated MW.
For another experiment, the target named is His‐GFP‐Mis18β (human) (UniProt O43482). The experiment is described as above.
Sequence of His‐GFP‐Mis18β (human) (O43482 whole entry): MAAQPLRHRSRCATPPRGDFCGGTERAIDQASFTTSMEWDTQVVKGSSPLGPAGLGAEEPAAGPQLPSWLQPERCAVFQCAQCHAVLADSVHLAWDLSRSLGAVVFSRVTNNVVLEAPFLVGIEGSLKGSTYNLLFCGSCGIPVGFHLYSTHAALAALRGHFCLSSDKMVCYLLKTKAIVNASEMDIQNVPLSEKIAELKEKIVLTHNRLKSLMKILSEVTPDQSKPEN

Sequence of His‐Mis18α (Q9NYP9 whole entry): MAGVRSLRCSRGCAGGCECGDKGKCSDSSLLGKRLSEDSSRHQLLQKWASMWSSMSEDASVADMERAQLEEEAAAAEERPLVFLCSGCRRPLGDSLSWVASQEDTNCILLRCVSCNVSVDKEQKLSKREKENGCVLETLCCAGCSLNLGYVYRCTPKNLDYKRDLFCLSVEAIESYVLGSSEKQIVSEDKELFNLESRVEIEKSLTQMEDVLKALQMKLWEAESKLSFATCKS
Sequence of His‐GFP‐Mis18α (Q9NYP9 whole entry): as above
Sequence of His‐Mis18β (human) (O43482 whole entry): as the sequence (O43482 whole entry) above

Take “His‐GFP‐Mis18α (from UniProt Q9NYP9 1-233) (natural protein)”: in the experiment with His‐Mis18β (human), the stoichiometry N (His-GFP-Mis18α per His-Mis18β (4:2)) was 2.

With “His‐Mis18α (from UniProt Q9NYP9 1-233) (natural protein)”, in the experiment with His‐GFP‐Mis18β (human), the stoichiometry N (His-Mis18α per His-GFP-Mis18β (4:2)) is 2.
